Residue numbers refer to the chain shown, from its start. Names may count otherwise.
Assays:
[1] = target: T1, biotinylated human TIM-3-Fc antigen (in-house product, SEQ ID No: 118) (human, biotinylated); assay: flow cytometry, inhibition of biotinylated TIM-3-Fc binding to phosphatidylserine on apoptotic Jurkat cells
[2] = target: T2, human TIM-3 (Accession No. JX049979.1) stably expressed on cells (human, UniProt Q8TDQ0 22-301); assay: flow cytometry, Jurkat/TIM-3 cells, KD from MFI
T2 construct: whole, on cells; On Jurkat or 293T cells; also called Jurkat/TIM-3; 293T/TIM-3

[3] = target: T3, recombinant human CD39 (in-house product, 38 to 478 aa of Accession No. NM_001776.6) (human, UniProt P49961 38-478); assay: SPR Biacore8K, antibody captured on anti-human IgG, antigen as analyte
T3 construct: also called rhCD39; human CD39-ECD; not shown: Myc and His tags at the C-terminus are named only for the PE-lab
T3 sequence (looked up): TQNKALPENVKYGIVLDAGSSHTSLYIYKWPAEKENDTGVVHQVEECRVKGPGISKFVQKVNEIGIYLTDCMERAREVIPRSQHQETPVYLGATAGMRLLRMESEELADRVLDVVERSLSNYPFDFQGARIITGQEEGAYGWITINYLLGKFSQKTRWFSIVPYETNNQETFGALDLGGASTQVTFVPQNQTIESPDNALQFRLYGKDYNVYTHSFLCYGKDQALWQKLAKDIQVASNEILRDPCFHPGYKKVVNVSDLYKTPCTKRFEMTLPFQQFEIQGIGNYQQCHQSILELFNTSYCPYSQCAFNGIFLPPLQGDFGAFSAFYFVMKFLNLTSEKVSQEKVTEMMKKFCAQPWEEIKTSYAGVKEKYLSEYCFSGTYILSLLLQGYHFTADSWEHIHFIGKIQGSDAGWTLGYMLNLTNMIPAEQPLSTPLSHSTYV

[4] = target: T4, human CD39 (Accession No. NM_001776.6) expressed on cells (human, UniProt P49961 1-510); assay: flow cytometry, Jurkat/CD39 cells, KD from MFI
T4 construct: whole, on cells; On Jurkat, 293T or SK-MEL28 cells; also called Jurkat/CD39; 293T/CD39
T4 sequence (looked up): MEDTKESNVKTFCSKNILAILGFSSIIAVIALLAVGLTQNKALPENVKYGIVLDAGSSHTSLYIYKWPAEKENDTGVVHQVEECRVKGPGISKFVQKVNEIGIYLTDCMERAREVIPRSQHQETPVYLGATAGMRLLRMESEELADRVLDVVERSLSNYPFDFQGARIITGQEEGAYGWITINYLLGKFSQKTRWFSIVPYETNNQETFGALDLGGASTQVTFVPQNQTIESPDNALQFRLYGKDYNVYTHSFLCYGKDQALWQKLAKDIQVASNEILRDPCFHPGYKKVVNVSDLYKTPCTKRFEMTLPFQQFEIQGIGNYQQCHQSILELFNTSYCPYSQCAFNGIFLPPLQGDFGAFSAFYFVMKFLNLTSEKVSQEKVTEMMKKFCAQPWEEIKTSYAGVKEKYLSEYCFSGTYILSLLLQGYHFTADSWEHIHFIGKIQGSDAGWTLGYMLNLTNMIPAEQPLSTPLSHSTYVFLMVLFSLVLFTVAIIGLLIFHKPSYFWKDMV

[5] = target: T1, biotinylated human TIM-3-Fc antigen …; assay: competition ELISA: human Galectin-9 coated, biotinylated human TIM-3-Fc pre-mixed with the antibody dilution series, Streptavidin-HRP, A450; blocked ligand: human Galectin-9
[6] = target: T4, human CD39 (Accession No. NM_001776.6) …; assay: flow cytometry, Jurkat/TIM-3 + CD39 cells, KD from MFI
[7] = target: T4, human CD39 (Accession No. NM_001776.6) …; assay: flow cytometry, 293T/CD39 cells, KD from MFI
[8] = target: T4, human CD39 (Accession No. NM_001776.6) …; assay: flow cytometry, 293T/TIM-3 + CD39 cells, KD from MFI

B1: T86_Hu003_Ct (bispecific antibody)
chain 1: QIQLVQSGPELKKPGETVKISCEASGYTFINYGMNWVKQAPGKGLKWMGWINTYTGEPTYADDFKGRFAFSLETSANTAYLQINNLKNEDTATYFCARKGYYGYPNYYAMDYWGQGTSVTVSSGGGGSGGGGSGGGGSGGGGSDIVMTQSQKFMSTSVGDRVSITCKASQNVGTAVAWYQQKPGQSPKLLIYSASNRYTGVPDRFTGSGSGTDFTLTISNMQSEDLADYFCQQYSSYPITFGTGTKLEIK
chain 2: QVQLQESGGGLVKPGGSLKLSCAASGFTFSSYYMSWVRQTPDKRLEWVATISNSGGSTYYPDSVKDRFTISRDNAKNTLYLQMSSLKSEDTAMYYCARDPYYTNYVPMDYWGQGTMVTVSSGGGGSGGGGSGGGGSGGGGSDIVMTQSPSFLSASVGDRVTITCKASQYVDTYVAWYQQRPGKAPKPLIYSASTRHTGVPSRFSGSGSGTEFTLTISSLQPEDFATYFCAQYSSSPLTFGGGTKLELK
- IC50 [1]: 30.8 nM
- Kd [2]: 2.77 nM
- Kd [3]: 1.74 nM
- Kd [4]: 18.8 nM
- IC50 (read off the curve) [5]: ~2 nM

B2: I67_Hu003_Ct (bispecific antibody)
chain 1: DVQLQESGPSLVQPSQSLSINCTVSGFSLSSYGVHWVRQSPGKGLEWLGVIWRRGSTDYNAAFMSRLSITKDNSKSQVFFKMNRLQADDTATYYCAKGISTATSWFAYWGQGTLVTVSAGGGGSGGGGSGGGGSGGGGSDIVMTQSHKFMSTSVGDRVSVTCKASQNVGTNVAWYQQKPGQSPKALIYSASYRYSGVPDRFTGSGSGTDFTLTISNVQSEDLAEYFCQQYNSYPLTFGAGTKLELK
chain 2: B1 chain 2
- IC50 [1]: 27.2 nM
- Kd [2]: 1.86 nM
- Kd [3]: 1.63 nM
- Kd [4]: 14.1 nM
- IC50 (read off the curve) [5]: ~2 nM

B3: Tre291_Hu003_Ct (bispecific antibody)
chain 1: QVQLKQSGPGLVQPSQSLSITCTVSGFSLTSYGVHWVRQSPGKGLEWLGVIWRRGSTDYNAAFMSRLSITKDTSKSQVFFKMNSLQTDDTAIYYCAGVRGDAMDYWGQGTSVTVSSGGGGSGGGGSGGGGSGGGGSDIVMTQSHKSMSTSVGDRVSVTCKASQNVGTNVAWYQQKPGQSPKALIYSASYRYSGVPDRFTGSGSGTDFTLTISNVQSEDLAEYFCQQYNSYPLTFGGGTKLEIK
chain 2: B1 chain 2
- IC50 [1]: 28.3 nM
- Kd [2]: 2.13 nM
- Kd [3]: 2.79 nM
- Kd [4]: 22.6 nM
- IC50 (read off the curve) [5]: ~1 nM

B4: 6-3hIG_Hu003_Ct (bispecific antibody)
chain 1: QVQLVQSGAELVKPGASVKLSCKASGFSIKDTYVHWVKQAPGKGLEWIGKIDPANVNTKFDPKFQGRVTITADTSTNTAYLQLSSLRSEDTAVYYCALYGYDDDAYYFDYWGQGTLVTVSSGGGGSGGGGSGGGGSGGGGSEIVLTQSPASLSVSPGERATISCRASESVDNYGISFMNWFQQKPGQAPKLLIYAASNQGSGVPARFSGSGSGTDFTLTISSLEPEDFAVYYCQQSKEVPYTFGQGTKLEIK
chain 2: B1 chain 2
- IC50 [1]: 16.1 nM
- Kd [2]: 1.92 nM
- Kd [3]: 0.355 nM
- Kd [4]: 237 nM
- IC50 (read off the curve) [5]: ~2 nM

B5: mAnE67_Hu003_Ct (bispecific antibody)
chain 1: EVQLVESGGGLVKPGGSRKLSCAASGFTFSDYGMHWVRQAPEKGLEWVAYISSGSSIIYYADTVKGRFTISRDNAKNTLFLQMTGLRSEDTAMYYCARKDYPYAMDYWGQGTSLAVSSGGGGSGGGGSGGGGSGGGGSSIVMTQTPKFMSTSVGDRVSVTCKASQNVGTNVAWYQQKPGQSPKALIYWASNRFTGVPDRFTGSGSGTDFTLTISNVQSEDLADYFCQQYSSSPYTFGSGTKLEIK
chain 2: B1 chain 2
- IC50 [1]: 24.7 nM
- Kd [2]: 1.49 nM
- Kd [3]: 2.26 nM
- Kd [4]: 2.69 nM

B6: T86_sc (antibody)
scFv: B1 chain 1
notes: scFv-Fc homodimer, anti-CD39 (mouse variable regions); also called scFv-Fc homodimeric antibody of anti-CD39_scFv antibody T86; not shown: linker and Fc-LALA (human IgG1 Fc with L234A and L235A)
- Kd [6]: 2.25 nM
- Kd [7]: 3.56 nM
- Kd [3]: 4.28 nM
- koff [3]: 0.000823 s⁻¹
- kon [3]: 192000 M⁻¹ s⁻¹
- Kd [4]: 2.18 nM
- Kd [8]: 16.9 nM

B7: I67_sc (antibody)
scFv: B2 chain 1
notes: scFv-Fc homodimer, anti-CD39 (mouse variable regions); also called scFv-Fc homodimeric antibody of anti-CD39_scFv antibody I67; not shown: linker and Fc-LALA (human IgG1 Fc with L234A and L235A)
- Kd [6]: 0.208 nM
- Kd [7]: 2.37 nM
- Kd [3]: 1.65 nM
- koff [3]: 0.00294 s⁻¹
- kon [3]: 1.78e+06 M⁻¹ s⁻¹
- Kd [4]: 0.329 nM
- Kd [8]: 6.8 nM

B8: Tre_291_sc (antibody)
scFv: B3 chain 1
notes: scFv-Fc homodimer, anti-CD39 (mouse variable regions); not shown: linker and Fc-LALA (human IgG1 Fc with L234A and L235A)
- Kd [6]: 0.922 nM
- Kd [7]: 2.43 nM
- Kd [3]: 2.22 nM
- koff [3]: 0.0031 s⁻¹
- kon [3]: 1.4e+06 M⁻¹ s⁻¹
- Kd [4]: 0.8 nM
- Kd [8]: 7.15 nM

B9: T86_LA (antibody, V domains shown)
VH: QIQLVQSGPELKKPGETVKISCEASGYTFINYGMNWVKQAPGKGLKWMGWINTYTGEPTYADDFKGRFAFSLETSANTAYLQINNLKNEDTATYFCARKGYYGYPNYYAMDYWGQGTSVTVSS
VL: DIVMTQSQKFMSTSVGDRVSITCKASQNVGTAVAWYQQKPGQSPKLLIYSASNRYTGVPDRFTGSGSGTDFTLTISNMQSEDLADYFCQQYSSYPITFGTGTKLEIK
notes: also called IgG1-LALA antibody of anti-CD39 antibody T86
- Kd [7]: 2.67 nM
- Kd [8]: 5.09 nM

B10: I67_LA (antibody, V domains shown)
VH: DVQLQESGPSLVQPSQSLSINCTVSGFSLSSYGVHWVRQSPGKGLEWLGVIWRRGSTDYNAAFMSRLSITKDNSKSQVFFKMNRLQADDTATYYCAKGISTATSWFAYWGQGTLVTVSA
VL: DIVMTQSHKFMSTSVGDRVSVTCKASQNVGTNVAWYQQKPGQSPKALIYSASYRYSGVPDRFTGSGSGTDFTLTISNVQSEDLAEYFCQQYNSYPLTFGAGTKLELK
notes: also called IgG1-LALA antibody of anti-CD39 antibody I67
- Kd [7]: 1.73 nM
- Kd [8]: 4.19 nM

B11: Tre291_LA (antibody, V domains shown)
VH: QVQLKQSGPGLVQPSQSLSITCTVSGFSLTSYGVHWVRQSPGKGLEWLGVIWRRGSTDYNAAFMSRLSITKDTSKSQVFFKMNSLQTDDTAIYYCAGVRGDAMDYWGQGTSVTVSS
VL: B10 VL with F10S, A100G, L106I
- Kd [7]: 2.44 nM
- Kd [8]: 4.79 nM

B12: mAnE67_LA (antibody, V domains shown)
VH: EVQLVESGGGLVKPGGSRKLSCAASGFTFSDYGMHWVRQAPEKGLEWVAYISSGSSIIYYADTVKGRFTISRDNAKNTLFLQMTGLRSEDTAMYYCARKDYPYAMDYWGQGTSLAVSS
VL: SIVMTQTPKFMSTSVGDRVSVTCKASQNVGTNVAWYQQKPGQSPKALIYWASNRFTGVPDRFTGSGSGTDFTLTISNVQSEDLADYFCQQYSSSPYTFGSGTKLEIK
notes: also called IgG1-LALA antibody of anti-CD39 antibody mAnE67
- Kd [7]: 1.8 nM
- Kd [8]: 3.66 nM

Source: patent publication US20260085127A1 (BRIGHTPATH BIOTHERAPEUTICS, published 2026)
